Results on four molecules are retold here after article doi:10.1101/2024.02.17.580827 (bioRxiv, 2024).

The target in the test is T1, FolK (purified protein) (E. coli, UniProt P26281 1-159).
T1 sequence: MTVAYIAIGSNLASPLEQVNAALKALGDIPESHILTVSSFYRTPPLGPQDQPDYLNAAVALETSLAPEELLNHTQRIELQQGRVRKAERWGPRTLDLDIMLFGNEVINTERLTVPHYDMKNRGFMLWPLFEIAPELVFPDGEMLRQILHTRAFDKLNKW
Briefly: Raman spectroscopy.

Changes are numbered by the printed parent chain. Numbers in names are those of the source.

B1: WT DHFR (purified protein) (enzyme)
chain: MISLIAALAVDRVIGMENAMPWNLPADLAWFKRNTLNKPVIMGRHTWESIGRPLPGRKNIILSSQPGTDDRVTWVKSVDEAIAACGDVPEIMVIGGGRVYEQFLPKAQKLYLTHIDAEVEGDTHFPDYEPDDWESVFSEFHDADAQNSHSYCFEILERR
With B1, binding was put at a Kd of 22 µM.

B2: N23V DHFR (purified protein) (enzyme)
chain: B1 chain with N23V
Consider B2, for which the affinity, expressed as Kd, was 5.1 µM.

B3: D144N DHFR (purified protein) (enzyme)
chain: B1 chain with D144N
Turning to B3, the Kd (usually the equilibrium constant for the complex coming apart) was found to be 10 µM.

B4: D132H DHFR (purified protein) (enzyme)
chain: B1 chain with D132H
The molecule B4 registered a Kd of 8.1 µM.
